Common to all, as to assay: SPR, IgG captured, 37C
On the technique in general: Surface plasmon resonance follows binding to a sensor surface in real time, without labels.

In experiment [1] the target is T1, recombinant cyno Tie2 extracellular domain (cynomolgus monkey, UniProt Q02763 23-748 (human entry)).
T1 construct: also called Recombinant cyno Tie2 ECD; cy Tie2
T1 chain: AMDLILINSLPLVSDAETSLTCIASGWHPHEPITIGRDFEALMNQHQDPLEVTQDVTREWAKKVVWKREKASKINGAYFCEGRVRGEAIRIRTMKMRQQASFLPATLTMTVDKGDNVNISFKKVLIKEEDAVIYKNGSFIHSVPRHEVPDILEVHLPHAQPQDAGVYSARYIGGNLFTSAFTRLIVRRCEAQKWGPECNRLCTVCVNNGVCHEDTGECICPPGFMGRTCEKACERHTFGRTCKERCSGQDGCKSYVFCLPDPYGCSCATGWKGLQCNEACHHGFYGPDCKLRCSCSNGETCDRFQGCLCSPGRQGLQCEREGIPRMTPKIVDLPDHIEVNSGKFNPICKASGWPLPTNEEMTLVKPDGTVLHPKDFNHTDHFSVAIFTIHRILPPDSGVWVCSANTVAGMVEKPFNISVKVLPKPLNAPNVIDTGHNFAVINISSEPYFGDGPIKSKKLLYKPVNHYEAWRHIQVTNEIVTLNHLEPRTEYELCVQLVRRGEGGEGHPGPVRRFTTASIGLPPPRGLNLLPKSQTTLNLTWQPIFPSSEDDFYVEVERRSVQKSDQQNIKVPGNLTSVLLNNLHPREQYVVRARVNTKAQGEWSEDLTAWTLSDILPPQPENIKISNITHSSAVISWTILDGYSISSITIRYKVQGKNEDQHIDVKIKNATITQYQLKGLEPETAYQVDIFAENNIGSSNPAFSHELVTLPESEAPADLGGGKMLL
The protocol: (§1) A human antibody capture chip was prepared using a Series S CM5 chip (GE Life Sciences), a human antibody capture kit (GE Life Sciences) and an amine coupling kit (GE Life Sciences). Antibodies diluted to 5 μg/ml in running buffer (10 mM HEPES, 150 mM NaCl, 0.05% Tween 20, 1 mM EDTA, pH 7.4) were non-covalently captured using a contact time of 20 seconds and a flow rate of 10 μl/minute. Binding to 300 nM and 1500 nM recombinant Tie2 was analyzed at 37° C. using a Single Cycle Kinetics method with a contact time of 60 seconds, a dissociation time of 120 seconds and a flow rate of 50 μl/min. Between cycles, the surface was regenerated by a 30 second injection of 3M MgCl₂ at a flow rate of 30 μl/min. Values for antibody capture levels and analyte binding levels were obtained from the Report Point Table (Biacore Evaluation Software v3.0, GE Life Sciences). […] Table 16: Experiment A; Table 17: Experiment B.

The target of experiment [2] is T2, recombinant human Tie2 extracellular domain (human, UniProt Q02763 23-748).
T2 construct: whole entry named; also called Recombinant human Tie2 ECD; hu Tie2
The procedure:
as §1

For experiment [3], the target named is T1, recombinant cyno Tie2 extracellular …. The protocol: as §1
The target of experiment [4] is T2, recombinant human Tie2 extracellular …. The protocol:
as §1
This is another data set of the same source.

Read-outs that look alike come from different tables or passages of the source.

T2 sequence (Q02763 23-748 limits assumed): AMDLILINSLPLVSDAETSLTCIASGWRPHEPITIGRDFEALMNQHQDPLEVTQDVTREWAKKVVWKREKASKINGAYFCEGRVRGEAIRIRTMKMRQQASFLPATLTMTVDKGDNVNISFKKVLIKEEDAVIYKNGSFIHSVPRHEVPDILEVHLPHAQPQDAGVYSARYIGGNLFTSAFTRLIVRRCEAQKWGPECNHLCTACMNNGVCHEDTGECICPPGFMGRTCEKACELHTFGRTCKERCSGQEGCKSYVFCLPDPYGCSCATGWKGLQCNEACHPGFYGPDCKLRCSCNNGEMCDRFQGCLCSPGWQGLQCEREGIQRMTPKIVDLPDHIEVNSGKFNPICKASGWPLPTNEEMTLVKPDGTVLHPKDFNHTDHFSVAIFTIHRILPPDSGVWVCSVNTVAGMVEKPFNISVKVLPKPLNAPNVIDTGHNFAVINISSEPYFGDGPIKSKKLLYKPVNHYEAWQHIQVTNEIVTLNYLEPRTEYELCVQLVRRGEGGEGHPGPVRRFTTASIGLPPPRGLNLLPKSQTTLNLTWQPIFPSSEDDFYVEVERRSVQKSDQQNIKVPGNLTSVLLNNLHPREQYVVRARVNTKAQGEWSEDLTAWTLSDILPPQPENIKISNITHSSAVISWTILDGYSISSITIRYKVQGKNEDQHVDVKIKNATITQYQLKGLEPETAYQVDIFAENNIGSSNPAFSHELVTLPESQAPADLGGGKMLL

B1: Tie2.1.M100cA (antibody, IgG1, name in Kabat numbering, V domains shown)
VH: EVQLVESGGGLVQPGGSLRLSCAASGFTFSNTDISWVRQAPGKGLEWVGRISPSDGNTYYADSVKGRFTISADTSKNTAYLQMNSLRAEDTAVYYCARRTRWASWAADYWGQGTLVTVSS
VL: DIQMTQSPSSLSASVGDRVTITCRASQDVSTAVAWYQQKPGKAPKLLIYSASFLYSGVPSRFSGSGSGTDFTLTISSLQPEDFATYYCQQSYTTPPTFGQGTKVEIKR
notes: hIgG1
For B1, the “Normalized Binding Signal, 300 nM” value in experiment [1] and in experiment [2] was 0.03 in each case. The “Normalized Binding Signal, 1500 nM” value in experiment [1] turned out to be 0.13; in experiment [2] it was 0.14.

B2: Tie2.1.M100cN (antibody, IgG1, name in Kabat numbering, V domains shown)
VH: EVQLVESGGGLVQPGGSLRLSCAASGFTFSNTDISWVRQAPGKGLEWVGRISPSDGNTYYADSVKGRFTISADTSKNTAYLQMNSLRAEDTAVYYCARRTRWASWANDYWGQGTLVTVSS
VL: DIQMTQSPSSLSASVGDRVTITCRASQDVSTAVAWYQQKPGKAPKLLIYSASFLYSGVPSRFSGSGSGTDFTLTISSLQPEDFATYYCQQSYTTPPTFGQGTKVEIKR
notes: hIgG1
Consider B2, for which, in experiment [1], the “Normalized Binding Signal, 300 nM” value was 0.1 and the “Normalized Binding Signal, 1500 nM” value turned out to be 0.36. Also, in experiment [2], the “Normalized Binding Signal, 300 nM” value came to 0.11 and the “Normalized Binding Signal, 1500 nM” value is 0.38.

B3: Tie2.1.M100cC (antibody, IgG1, name in Kabat numbering, V domains shown)
VH: EVQLVESGGGLVQPGGSLRLSCAASGFTFSNTDISWVRQAPGKGLEWVGRISPSDGNTYYADSVKGRFTISADTSKNTAYLQMNSLRAEDTAVYYCARRTRWASWACDYWGQGTLVTVSS
VL: DIQMTQSPSSLSASVGDRVTITCRASQDVSTAVAWYQQKPGKAPKLLIYSASFLYSGVPSRFSGSGSGTDFTLTISSLQPEDFATYYCQQSYTTPPTFGQGTKVEIKR
notes: hIgG1
Take B3: in experiment [1], the “Normalized Binding Signal, 300 nM” value worked out at 0.1 and the “Normalized Binding Signal, 1500 nM” value was determined as 0.35. Moreover, in experiment [2], the “Normalized Binding Signal, 300 nM” value worked out at 0.11 and the “Normalized Binding Signal, 1500 nM” value came to 0.37.

B4: Tie2.1.M100cR (antibody, IgG1, name in Kabat numbering, V domains shown)
VH: EVQLVESGGGLVQPGGSLRLSCAASGFTFSNTDISWVRQAPGKGLEWVGRISPSDGNTYYADSVKGRFTISADTSKNTAYLQMNSLRAEDTAVYYCARRTRWASWARDYWGQGTLVTVSS
VL: DIQMTQSPSSLSASVGDRVTITCRASQDVSTAVAWYQQKPGKAPKLLIYSASFLYSGVPSRFSGSGSGTDFTLTISSLQPEDFATYYCQQSYTTPPTFGQGTKVEIKR
notes: hIgG1
On to B4, for which, in experiment [1], the “Normalized Binding Signal, 300 nM” value came to 0.05 and the “Normalized Binding Signal, 1500 nM” value amounted to 0.2. Moreover, in experiment [2], the “Normalized Binding Signal, 300 nM” value stood at 0.06 and the “Normalized Binding Signal, 1500 nM” value came out at 0.22.

B5: Tie2.1.M100cK (antibody, IgG1, name in Kabat numbering, V domains shown)
VH: EVQLVESGGGLVQPGGSLRLSCAASGFTFSNTDISWVRQAPGKGLEWVGRISPSDGNTYYADSVKGRFTISADTSKNTAYLQMNSLRAEDTAVYYCARRTRWASWAKDYWGQGTLVTVSS
VL: DIQMTQSPSSLSASVGDRVTITCRASQDVSTAVAWYQQKPGKAPKLLIYSASFLYSGVPSRFSGSGSGTDFTLTISSLQPEDFATYYCQQSYTTPPTFGQGTKVEIKR
notes: hIgG1
As for B5, in experiment [1], the “Normalized Binding Signal, 300 nM” value amounted to 0.11 and the “Normalized Binding Signal, 1500 nM” value came to 0.39. In experiment [2], the “Normalized Binding Signal, 300 nM” value worked out at 0.13 and the “Normalized Binding Signal, 1500 nM” value came out at 0.41.

B6: Tie2.1.M100cG (antibody, IgG1, name in Kabat numbering, V domains shown)
VH: EVQLVESGGGLVQPGGSLRLSCAASGFTFSNTDISWVRQAPGKGLEWVGRISPSDGNTYYADSVKGRFTISADTSKNTAYLQMNSLRAEDTAVYYCARRTRWASWAGDYWGQGTLVTVSS
VL: DIQMTQSPSSLSASVGDRVTITCRASQDVSTAVAWYQQKPGKAPKLLIYSASFLYSGVPSRFSGSGSGTDFTLTISSLQPEDFATYYCQQSYTTPPTFGQGTKVEIKR
notes: hIgG1
For the molecule B6, the “Normalized Binding Signal, 300 nM” value in experiment [1] came out at 0.05; in experiment [2] it was 0.06. In addition, the “Normalized Binding Signal, 1500 nM” value in experiment [1] worked out at 0.2; in experiment [2] it was 0.21.

B7: Tie2.1.M100cW (antibody, IgG1, name in Kabat numbering, V domains shown)
VH: EVQLVESGGGLVQPGGSLRLSCAASGFTFSNTDISWVRQAPGKGLEWVGRISPSDGNTYYADSVKGRFTISADTSKNTAYLQMNSLRAEDTAVYYCARRTRWASWAWDYWGQGTLVTVSS
VL: DIQMTQSPSSLSASVGDRVTITCRASQDVSTAVAWYQQKPGKAPKLLIYSASFLYSGVPSRFSGSGSGTDFTLTISSLQPEDFATYYCQQSYTTPPTFGQGTKVEIKR
notes: hIgG1
Consider B7, for which, in experiment [1], the “Normalized Binding Signal, 300 nM” value came out at 0.07 and the “Normalized Binding Signal, 1500 nM” value was 0.29. Moreover, in experiment [2], the “Normalized Binding Signal, 300 nM” value amounted to 0.08 and the “Normalized Binding Signal, 1500 nM” value stood at 0.31.

B8: Tie2.1.M100cT (antibody, IgG1, name in Kabat numbering, V domains shown)
VH: EVQLVESGGGLVQPGGSLRLSCAASGFTFSNTDISWVRQAPGKGLEWVGRISPSDGNTYYADSVKGRFTISADTSKNTAYLQMNSLRAEDTAVYYCARRTRWASWATDYWGQGTLVTVSS
VL: DIQMTQSPSSLSASVGDRVTITCRASQDVSTAVAWYQQKPGKAPKLLIYSASFLYSGVPSRFSGSGSGTDFTLTISSLQPEDFATYYCQQSYTTPPTFGQGTKVEIKR
notes: hIgG1
Take B8: in experiment [1], the “Normalized Binding Signal, 300 nM” value was 0.02 and the “Normalized Binding Signal, 1500 nM” value worked out at 0.09. In addition, in experiment [2], the “Normalized Binding Signal, 300 nM” value came out at 0.02 and the “Normalized Binding Signal, 1500 nM” value came to 0.1.

B9: Tie2.1.M100cV (antibody, IgG1, name in Kabat numbering, V domains shown)
VH: EVQLVESGGGLVQPGGSLRLSCAASGFTFSNTDISWVRQAPGKGLEWVGRISPSDGNTYYADSVKGRFTISADTSKNTAYLQMNSLRAEDTAVYYCARRTRWASWAVDYWGQGTLVTVSS
VL: DIQMTQSPSSLSASVGDRVTITCRASQDVSTAVAWYQQKPGKAPKLLIYSASFLYSGVPSRFSGSGSGTDFTLTISSLQPEDFATYYCQQSYTTPPTFGQGTKVEIKR
notes: hIgG1
In the case of B9, in experiment [1], the “Normalized Binding Signal, 300 nM” value was determined as 0.04 and the “Normalized Binding Signal, 1500 nM” value came to 0.15. In addition, in experiment [2], the “Normalized Binding Signal, 300 nM” value was determined as 0.04 and the “Normalized Binding Signal, 1500 nM” value was found to be 0.16.

B10: Tie2.1.M100cH (antibody, IgG1, name in Kabat numbering, V domains shown)
VH: EVQLVESGGGLVQPGGSLRLSCAASGFTFSNTDISWVRQAPGKGLEWVGRISPSDGNTYYADSVKGRFTISADTSKNTAYLQMNSLRAEDTAVYYCARRTRWASWAHDYWGQGTLVTVSS
VL: DIQMTQSPSSLSASVGDRVTITCRASQDVSTAVAWYQQKPGKAPKLLIYSASFLYSGVPSRFSGSGSGTDFTLTISSLQPEDFATYYCQQSYTTPPTFGQGTKVEIKR
notes: hIgG1
In the case of B10, the “Normalized Binding Signal, 300 nM” value in experiment [1] turned out to be 0.1; in experiment [2] it was 0.11. Also, the “Normalized Binding Signal, 1500 nM” value in experiment [1] is 0.36; in experiment [2] it was 0.39.

B11: Tie2.1.M100cI (antibody, IgG1, name in Kabat numbering, V domains shown)
VH: EVQLVESGGGLVQPGGSLRLSCAASGFTFSNTDISWVRQAPGKGLEWVGRISPSDGNTYYADSVKGRFTISADTSKNTAYLQMNSLRAEDTAVYYCARRTRWASWAIDYWGQGTLVTVSS
VL: DIQMTQSPSSLSASVGDRVTITCRASQDVSTAVAWYQQKPGKAPKLLIYSASFLYSGVPSRFSGSGSGTDFTLTISSLQPEDFATYYCQQSYTTPPTFGQGTKVEIKR
notes: hIgG1
In the case of B11, the “Normalized Binding Signal, 300 nM” value was found to be 0.03 in experiment [3], 0.04 in experiment [4], 0.03 in experiment [1] and 0.03 in experiment [2]. Further, the “Normalized Binding Signal, 1500 nM” value in experiment [3] is 0.12; in experiment [4], 0.14; in experiment [1], 0.13; in experiment [2], 0.14.

B12: Tie2.1.M100cP (antibody, IgG1, name in Kabat numbering, V domains shown)
VH: EVQLVESGGGLVQPGGSLRLSCAASGFTFSNTDISWVRQAPGKGLEWVGRISPSDGNTYYADSVKGRFTISADTSKNTAYLQMNSLRAEDTAVYYCARRTRWASWAPDYWGQGTLVTVSS
VL: DIQMTQSPSSLSASVGDRVTITCRASQDVSTAVAWYQQKPGKAPKLLIYSASFLYSGVPSRFSGSGSGTDFTLTISSLQPEDFATYYCQQSYTTPPTFGQGTKVEIKR
notes: hIgG1
B12: in experiment [1], the “Normalized Binding Signal, 300 nM” value came out at 0.02 and the “Normalized Binding Signal, 1500 nM” value amounted to 0.1. Moreover, in experiment [2], the “Normalized Binding Signal, 300 nM” value is 0.02 and the “Normalized Binding Signal, 1500 nM” value amounted to 0.11.
